Experimental findings from patent publication US20250333515A1 (VOR BIOPHARMA, published 2025) are described below.

To fix the notation:
T1: CLL-1 on the surface of CLL-1-positive AML cell lines (HL-60 WT, U937) (human, UniProt Q5QGZ9 1-265)
T1 construct: whole, on cells; also called HL-60 WT cells; U937 cells
T1 sequence (looked up): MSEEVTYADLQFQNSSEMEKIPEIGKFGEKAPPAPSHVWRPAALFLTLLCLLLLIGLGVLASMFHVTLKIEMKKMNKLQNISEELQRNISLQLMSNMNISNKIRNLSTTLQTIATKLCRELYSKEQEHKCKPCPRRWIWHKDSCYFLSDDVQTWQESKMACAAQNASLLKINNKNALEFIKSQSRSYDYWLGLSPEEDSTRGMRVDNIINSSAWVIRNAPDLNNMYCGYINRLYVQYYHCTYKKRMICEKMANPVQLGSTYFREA

T2: biotinylated recombinant CLL-1 protein (UniProt Q5QGZ9 65-265, limits assumed, biotinylated (site not stated))
T2 construct: also called CLEC12A
T2 sequence (looked up): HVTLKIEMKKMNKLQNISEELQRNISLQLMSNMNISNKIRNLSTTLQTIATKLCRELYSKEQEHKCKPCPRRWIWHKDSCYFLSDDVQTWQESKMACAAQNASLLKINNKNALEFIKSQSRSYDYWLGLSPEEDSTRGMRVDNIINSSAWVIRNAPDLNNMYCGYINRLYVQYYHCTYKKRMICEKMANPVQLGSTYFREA

B1: Anti-CLL-1 Binder Clone 4 (scFv)
scFv: QSVVTQPPSVSAAPGQKVTISCSGSSPNIGKNYVSWYQQLPGTAPKLLIYDNNKRPSGIPDRFSGSKSGTSATLGITGLQTGDEADYYCGTWDSSLSGYVFGTGTKVTVLGGGGSGGGGSGGGGSQVQLVESGGGVVQPGRSLRLSCAASGFTFSSYGMHWVRQAPGKGLEWVAFISHDGSNKYYADSVKGRSTISRDNSKSTLFLQMNSLRDEDTAVYFCAREGQLTTSWDFFDYWGHGTLVTVSS
notes: scFv (VL-linker-VH); not shown: FLAG tag
B2: Anti-CLL-1 Binder Clone 6 (scFv)
scFv: QSVLTQPPSVSAAPGQKVSIFCSGGSSNIGKNYVSWYQQLPGTAPKLLIYENQHRPSGIPDRFSGSKSGTSATLGITGLQTGDEADYYCATWDDSLSAGVFGGGTELTVLGGGGSGGGGSGGGGSQLVQSGAEVRKPGESLKISCKGSGYSFTSYWIGWVRQMPGKGLEWMGFIYPGDSDTRYSPSFQGQVTISADKSISTAYLQRSSLKASDTAMYYCARLGGYSGYDSEVFYLDYWGQGTTVTVSS
notes: as for B1
B3: Anti-CLL-1 Binder Clone 10 (scFv)
scFv: DIQMTQSPSFLSASVGDRVTITCRASQGISSYLAWYQQKPGKAPKLLIYSASSLQSGVPSRFSGSGSGTDFTLTISSLQPEDFATYYCQQSYNSPTFGQGTRLEIKGGGGSGGGGSGGGGSQVQLVQSGAEVKKPGASVKVSCKASGYTFTGYYMHWVRQAPGQGLEWMGWMNPNSGNTGYAQKFQGRVTMTRNTSISTAYLELTSLTSDDTAVYYCARGDTGDFFDHWGQGTLVTVSS
notes: as for B1
B4: Anti-CLL-1 Binder Clone 2 (scFv)
scFv: QSVLTQPLSVSVALGQTARITCGGNNIGSKNVHWYQQKAGQAPVLVIQRDSNRPSGIPERFSGSNSGNTATLTISRAQAGDEADYFCQVWDSNTYVFGTGTKLTVLGGGGSGGGGSGGGGSEVQLVESGGGLVKPGGSLRLSCAASGFTFSDYYMSWIRQAPGKGLEWVSYISSSGSTIYYADSVKGRFTISRDNAKNSLYLQMNSLRDEDTAVYYCARQSAEIVGAFDHWGQGTMVTVSS
notes: as for B1
B5: Anti-CLL-1 Binder Clone 42 (scFv)
scFv: EIVLTQSPATLSLSPGERATLSCRASQSVSSYLAWYQQKPGQAPRLLIYDASNRATGIPDRFSGSGSGTDFTLTISRLEPEDFAVYYCQQYGSSPVTFGQGTKLEIKGGGGSGGGGSGGGGSQVQLVQSGAEVKKPGSSVKVSCKASGGTFSSYAISWVRQAPGQGLEWMGGIIPIFGTANYAQKFQGRVIMTTDTSTSTAHMELRSLRSDDTAVYYCARDADEFGAFDIWGQGTTVTVSS
notes: as for B1
B6: Anti-CLL-1 Binder Clone 38 (scFv)
scFv: DIQMTQSPSTLSASVGDRVTITCRASQSISSWLAWYQQKPGKAPKLLIYTASSLQSGVPSRFSGSESGTDFTLTISSLQPEDFATYYCQQSYSTPLTFGGGTKVDIKGGGGSGGGGSGGGGSQVQLVQSGAEVKKPGASVKVSCKASGYTFTGYYMHWVRQAPGQGLEWMGWINPNSGGTNYAQKFQGRVTLTRDTSITTAYLELTSLTSDDTAVYYCARGDTGDFFDHWGQGTLVTVSS
notes: as for B1
B7: Anti-CLL-1 Binder Clone 12 (scFv)
scFv: DIQMTQSPSSLSASVGDRVTITCQASQDISNYLNWYQQKPGKAPKLLIYDASNLETGVPSRFSGSGSGTDFTLTISSPQPEDLATYYCQQANSFPFTFGQGTKVEIKGGGGSGGGGSGGGGSQVQLVQSGAEVKKPGSSVKVSCKASGYSFTRNDITWVRQANGRGLEWLGRLNPNNGDTVYAEVFQGRVAMTRDTSTDTAYMELASLKSDDTAVYFCARGFWSFDVWGQGTMVTVSS
notes: as for B1
B8: Anti-CLL-1 Binder Clone 1 (scFv)
scFv: SYVLTQPPSVSVAPGQTARITCGGNNIGSKSVHWYQQKPGQAPVLVVYDDSDRPSGIPERFSGSNSGNTATLTISRVEAGDEADYYCQVWDSSSDHPVFGGGTQLIILGGGGSGGGGSGGGGSQVQLVQSGAEVKKPGSSVKVSCKASGGTFSSYAISWVRQAPGQGLEWMGRIIPILGIANYAQKFQGRVTITADESTSTAYMELSSLRSEDTAVYYCAREKDDILTGAYYYGMDVWGQGTTVTVSS
notes: scFv (VL-linker-VH) from a fully human scFv phage library; not shown: FLAG tag
B9: Anti-CLL-1 Binder Clone 11 (scFv)
scFv: QSVLTQPASVSGSPGQSITISCTGTSSDVGASNSVSWYQRHPGKPPKLMIYDVSNRPSGISNRFSGSKSGNTASLTISGLQSEDEADYYCSSYTGSSTFVVFGGGTQLIILGGGGSGGGGSGGGGSEVQLVESGGGVVQPGGSLRLSCAASGFTFSSYWMSWVRQAPGKGLEWVANIRQDGSEKYYVDSVKGRFTISRDNAKNSLYLQMNSLRAEDAAVYYCAREQDTAMVAFDYWGQGTLVTVSS
notes: as for B1
B10: Anti-CLL-1 Binder Clone 40 (scFv)
scFv: QSVLTQPPSVSAAPGQKVTISCSGSSSNIGNNYVSWYQQLPGTAPKLLIYDNNKRPSGIPDRFSGSESGTSATLGITGLQTGDEADYYCGTWDSSLSAWVFGGGTQLIILGGGGSGGGGSGGGGSQVQLQQSGPGLVKPSQTLSLTCAISGDSVSSNSAAWNWIRQSPSRGLEWLGRTHYRSKWYNDYAVSVKSRITISADTSKNQFSLQLNSVTPEDTAVYYCARDRYTVRPDAFDIWGQGTTVTVSS
notes: as for B1
B11: Anti-CLL-1 Binder Clone 20 (VHH)
VHH: QVQLVQSGGGLVQPGGSLRLSCAASDFSFSYYEMSWVRQAPGKGLEWVSTISGSGDSTYYADSVKGRFTISRDNTKNTLYLQMNTLRAEDTATYYCMTDGETWGTHRYTVYWGQGALVTVSS
notes: also called 20 VH; VH clone 20; not shown: FLAG tag

One assay has as its target T1, CLL-1 on the surface of CLL-1-positive …. As to the kind of experiment: multi-point flow cytometry on HL-60 WT cells, FLAG-tagged binder, anti-FLAG AlexaFluor 488. How it is done:
Target cell staining was assessed relative to control samples comprising cells stained with secondary antibodies only (see FIG. 6). Multi-point FACS via flow cytometry was performed to assess dose-depending binding of CLL-1 antibody binders to the cell surface of HL-60 WT cells. Un-fixed, un-permeabilized cells were incubated with various concentrations of purified FLAG-tagged anti-CLL-1 antibody clones and cell-surface binding was detected by subsequent incubation in the presence of rabbit anti-FLAG tag antibody AlexaFluor 488-conjugate antibody (R&D Systems).
On to B1, for which the half-maximal effective concentration (EC50) was 6.4 nM.
Take B2: the EC50 turned out to be 59 nM.
Same read-out and setting: the value for B3 was 0.2 nM; that for B4 was 1.8 nM; that for B5 was 2.2 nM.
Still for that read-out and setting: as for B6, the figure is 1.6 nM.
Take B7: the EC50 came out at 0.2 nM.
On the same count and under the same terms, as for B8, the figure is 3.2 nM.
Still for that read-out and setting: the value for B9 was 0.2 nM; that for B10 was 11.4 nM.

The target is the same in another assay. The assay can be described thus: flow cytometry, U937, 200 nM; last table names out of step. As to the method: (§1) HL60 WT, U937, or HL-60 CLL-1 knockout (KO) control cells were counted, washed in PBS and mixed with 1 ml of Fixable Viability dye eFluor 780 (diluted at 1:1000 in PBS) then incubated at room temperature for 10 minutes to distinguish Live/Dead cells. Subsequently the cells were washed once with FACS Buffer (PBS with 2% FBS) and incubated with human TruStain FcX™ (Fc block diluted at 1:10 in FACS buffer) at room temperature for 5 minutes. Fc blocked cells were stained with 50 μL of the primary CLL-1 antibody (at 200 nM concentrations) and incubated at 4° C. for 30 minutes in the dark. Cells were subsequently stained with 100 μL of secondary antibody (AF488 Rabbit anti-FLAG-tag diluted at 1:1000) incubated at 4° C. for 30 minutes in the dark. Cells were washed and flow cytometric analysis was performed using flow cytometry and data analysis was performed using FlowJo.
Turning to B1, the “Geometric Mean : B530-H” value was 33600.
In the case of B2, the “Geometric Mean : B530-H” value came to 34300.
On the same count and under the same terms, the value for B11 was 27000.
On to B3, for which the “Geometric Mean : B530-H” value was 52100.
In the case of B4, the “Geometric Mean : B530-H” value stood at 50800.
On the same count and under the same terms, the value for B5 was 29000; that for B6 was 55300.
The same measure, in the same setting: as for B7, the figure is 59600; as for B8, 46300.
For the molecule B9, the “Geometric Mean : B530-H” value turned out to be 60200.

A further assay concerns the target T2, biotinylated recombinant CLL-1 protein. The assay can be described thus: ELISA; biotinylated CLL-1 on neutravidin plate, FLAG-tagged binder, anti-FLAG HRP. As to the method:
Dose-depending binding activities were analyzed by ELISA. COSTAR® microtiter plates were coated with 1 μg/mL neutravidin protein. Following washing, neutravidin-coated wells were seeded with 100 nM of biotinylated recombinant CLL-1 protein. Following washing, purified FLAG-tagged CLL-1 antibody binders were added to the wells and subsequently detected by mouse anti-FLAG tag HRP conjugate (Sigma).
With B1, the concentration giving a half-maximal response (EC50) is 1.4 nM.
The same measure, in the same setting: the value for B2 was 0.9 nM; that for B11 was 4.7 nM.
As for B3, the EC50 stood at 1.1 nM.
Same read-out and setting: as for B4, the figure is 0.9 nM; as for B5, 1.5 nM.
Still for that read-out and setting: as for B6, the figure is 0.6 nM; as for B7, 3.7 nM; as for B8, 3.4 nM.
With B9, the EC50 turned out to be 1.4 nM.
On to B10, for which the EC50 was determined as 0.5 nM.

The target of the next assay is T1, CLL-1 on the surface of CLL-1-positive …. The assay can be described thus: flow cytometry, HL-60 WT, 200 nM; secondary only 5600. How it is done:
as §1
Consider B1, for which the “Geometric Mean : B530-H” value worked out at 11600.
Same read-out and setting: the value for B2 was 9390.
With B11, the “Geometric Mean : B530-H” value turned out to be 9110.
Still for that read-out and setting: as for B3, the figure is 24900; as for B4, 11100.
With B5, the “Geometric Mean : B530-H” value was 10400.
For B6, the “Geometric Mean : B530-H” value was found to be 19800.
Still for that read-out and setting: the value for B7 was 11800.
Take B8: the “Geometric Mean : B530-H” value turned out to be 18100.
For B9, the “Geometric Mean : B530-H” value turned out to be 20500.
On the same count and under the same terms, as for B10, the figure is 23100.
